Residue numbers refer to the chain shown, from its start. Where “and” joins values, the source holds several entries; their conditions need not be identical. Equal values may be shown once. Blank lines part the entries; values can stand above or below the molecule they belong to.
Assays:
ScDmc1 = molecular target: T1, ScDmc1 (Saccharomyces cerevisiae, UniProt P25453, E157D); experiment: nitrocellulose filter binding; conditions: 3 µM Dmc1, 90 nt ssDNA (6 µM nt), 5 mM Mg2+, 70 µM Ca2+, pH 7.5, 30°C; labelled compound (alpha-32P)
T1 construct: gene DMC1; N-terminal 6x-His tag (kept), expressed in E. coli; nucleoprotein filament on 90 nt ssDNA
T1 sequence (P25453 1-334 E157D): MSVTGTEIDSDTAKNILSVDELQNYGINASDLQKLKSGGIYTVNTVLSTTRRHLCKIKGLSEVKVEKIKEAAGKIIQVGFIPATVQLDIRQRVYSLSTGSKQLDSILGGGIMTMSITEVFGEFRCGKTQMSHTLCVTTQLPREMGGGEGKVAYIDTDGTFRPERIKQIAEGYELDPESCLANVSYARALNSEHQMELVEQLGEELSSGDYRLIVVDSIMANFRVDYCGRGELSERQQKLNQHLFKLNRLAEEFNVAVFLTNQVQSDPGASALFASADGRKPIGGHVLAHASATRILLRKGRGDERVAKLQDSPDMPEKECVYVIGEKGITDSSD

ScDmc1 (Dmc1–WT) = molecular target: T2, ScDmc1 (Dmc1–WT) (Saccharomyces cerevisiae, UniProt P25453); experiment: nitrocellulose filter binding; conditions: 3 µM Dmc1, 90 nt ssDNA (6 µM nt), 5 mM Mg2+, 70 µM Ca2+, pH 7.5, 30°C; labelled compound (alpha-32P); read-out: KD (apparent)
T2 construct: N-terminal 6x-His tag (kept), expressed in E. coli; nucleoprotein filament on 90 nt ssDNA
T2 sequence (P25453 1-334): T1 sequence (P25453 1-334 E157D) with D157E
Excerpt: nitrocellulose filter binding on ScDmc1 (Dmc1–WT) | Dmc1–WT binds ATP with the same apparent affinity in the presence and absence of Mei5–Sae3

Dmc1-WT [1] = molecular target: T3, Dmc1-WT (Saccharomyces cerevisiae, UniProt P25453 1-334); experiment: fluorescence polarization; ATP, 250 uM Ca2+; FP: 25 mM HEPES pH 7.5, 1 mM Mg2+, 1 mM ATP, 1 mM DTT, 50 mM NaCl (100 mM in Fig. 3), 100 ug/ml BSA, 0.02% NP-40, 70 uM Ca2+ or as indicated, 3 nM 84-nt ssDNA; conditions: protein: recombinant; tags: N-terminal 6xHis; label: 5' Alexa Fluor 488
T3 sequence: T1 sequence (P25453 1-334 E157D) with D157E

RecA;Mei5-Sae3 = RecA;Mei5-Sae3 (Escherichia coli;Saccharomyces …, UniProt P0A7G6;P32489;P89114 1-353;1-222;1-91, |); experiment: fluorescence polarization; 400 nM Mei5-Sae3: no impact on Kd; FP: 25 mM HEPES pH 7.5, 1 mM Mg2+, 1 mM ATP, 1 mM DTT, 50 mM NaCl (100 mM in Fig. 3), 100 ug/ml BSA, 0.02% NP-40, 70 uM Ca2+ or as indicated, 3 nM 84-nt ssDNA; conditions: protein: ;recombinant; tags: ;N-terminal 6xHis on Mei5; label: 5' Alexa Fluor 488
Mei5-Sae3 = molecular target: T4, Mei5-Sae3 (Saccharomyces cerevisiae, UniProt P32489;P89114 1-222;1-91); experiment: fluorescence polarization; titration; very low signal at 400 nM; FP: 25 mM HEPES pH 7.5, 1 mM Mg2+, 1 mM ATP, 1 mM DTT, 50 mM NaCl (100 mM in Fig. 3), 100 ug/ml BSA, 0.02% NP-40, 70 uM Ca2+ or as indicated, 3 nM 84-nt ssDNA; conditions: protein: recombinant; tags: N-terminal 6xHis on Mei5; copies: 1;1; label: 5' Alexa Fluor 488
T4 sequence 1: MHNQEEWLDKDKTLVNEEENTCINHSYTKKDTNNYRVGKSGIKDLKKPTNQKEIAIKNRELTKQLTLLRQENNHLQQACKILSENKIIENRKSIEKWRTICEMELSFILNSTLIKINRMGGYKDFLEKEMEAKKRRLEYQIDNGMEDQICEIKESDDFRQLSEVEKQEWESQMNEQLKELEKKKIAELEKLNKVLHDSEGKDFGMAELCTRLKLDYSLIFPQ
T4 sequence 2: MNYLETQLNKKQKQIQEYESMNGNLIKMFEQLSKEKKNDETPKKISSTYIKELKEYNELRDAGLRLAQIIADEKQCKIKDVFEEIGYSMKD

Dmc1-WT [2] = molecular target: T3, Dmc1-WT; experiment: fluorescence polarization; ATP, 1 mM Ca2+; FP: 25 mM HEPES pH 7.5, 1 mM Mg2+, 1 mM ATP, 1 mM DTT, 50 mM NaCl (100 mM in Fig. 3), 100 ug/ml BSA, 0.02% NP-40, 70 uM Ca2+ or as indicated, 3 nM 84-nt ssDNA; conditions: protein: recombinant; tags: N-terminal 6xHis; label: 5' Alexa Fluor 488
RecA = RecA (Escherichia coli, UniProt P0A7G6 1-353); experiment: fluorescence polarization; 100 mM NaCl (90% of binding remains); FP: 25 mM HEPES pH 7.5, 1 mM Mg2+, 1 mM ATP, 1 mM DTT, 50 mM NaCl (100 mM in Fig. 3), 100 ug/ml BSA, 0.02% NP-40, 70 uM Ca2+ or as indicated, 3 nM 84-nt ssDNA; conditions: label: 5' Alexa Fluor 488
Dmc1-WT;Mei5-Sae3 [3] = molecular target: T5, Dmc1-WT;Mei5-Sae3 (Saccharomyces cerevisiae;Saccharomyces …, UniProt P25453;P32489;P89114 1-334;1-222;1-91, |); experiment: fluorescence polarization; AMP-PNP, 400 nM Mei5-Sae3; FP: 25 mM HEPES pH 7.5, 1 mM Mg2+, 1 mM ATP, 1 mM DTT, 50 mM NaCl (100 mM in Fig. 3), 100 ug/ml BSA, 0.02% NP-40, 70 uM Ca2+ or as indicated, 3 nM 84-nt ssDNA; conditions: protein: recombinant;recombinant; tags: N-terminal 6xHis;N-terminal 6xHis on Mei5; label: 5' Alexa Fluor 488
T5 sequence 1: T1 sequence (P25453 1-334 E157D) with D157E
T5 sequence 2: T4 sequence 1
T5 sequence 3: T4 sequence 2

Dmc1-WT [4] = molecular target: T3, Dmc1-WT; experiment: fluorescence polarization; ATP, 70 uM Ca2+; FP: 25 mM HEPES pH 7.5, 1 mM Mg2+, 1 mM ATP, 1 mM DTT, 50 mM NaCl (100 mM in Fig. 3), 100 ug/ml BSA, 0.02% NP-40, 70 uM Ca2+ or as indicated, 3 nM 84-nt ssDNA; conditions: protein: recombinant; tags: N-terminal 6xHis; label: 5' Alexa Fluor 488
hRad51 [5] = molecular target: T6, hRad51 (Homo sapiens, UniProt Q06609 1-339); experiment: fluorescence polarization; ADP; FP: 25 mM HEPES pH 7.5, 1 mM Mg2+, 1 mM ATP, 1 mM DTT, 50 mM NaCl (100 mM in Fig. 3), 100 ug/ml BSA, 0.02% NP-40, 70 uM Ca2+ or as indicated, 3 nM 84-nt ssDNA; conditions: chain copies: 28; label: 5' Alexa Fluor 488
hRad51 [6] = molecular target: T6, hRad51; experiment: fluorescence polarization; ATP; FP: 25 mM HEPES pH 7.5, 1 mM Mg2+, 1 mM ATP, 1 mM DTT, 50 mM NaCl (100 mM in Fig. 3), 100 ug/ml BSA, 0.02% NP-40, 70 uM Ca2+ or as indicated, 3 nM 84-nt ssDNA; conditions: chain copies: 28; label: 5' Alexa Fluor 488
Dmc1-WT;Mei5-Sae3 [7] = molecular target: T5, Dmc1-WT;Mei5-Sae3; experiment: fluorescence polarization; ADP, 400 nM Mei5-Sae3; FP: 25 mM HEPES pH 7.5, 1 mM Mg2+, 1 mM ATP, 1 mM DTT, 50 mM NaCl (100 mM in Fig. 3), 100 ug/ml BSA, 0.02% NP-40, 70 uM Ca2+ or as indicated, 3 nM 84-nt ssDNA; conditions: protein: recombinant;recombinant; tags: N-terminal 6xHis;N-terminal 6xHis on Mei5; label: 5' Alexa Fluor 488
Dmc1-WT;Mei5-Sae3 [8] = molecular target: T5, Dmc1-WT;Mei5-Sae3; experiment: fluorescence polarization; ATP, 70 uM Ca2+, Mei5-Sae3 (400 nM, no own signal); FP: 25 mM HEPES pH 7.5, 1 mM Mg2+, 1 mM ATP, 1 mM DTT, 50 mM NaCl (100 mM in Fig. 3), 100 ug/ml BSA, 0.02% NP-40, 70 uM Ca2+ or as indicated, 3 nM 84-nt ssDNA; conditions: protein: recombinant;recombinant; tags: N-terminal 6xHis;N-terminal 6xHis on Mei5; label: 5' Alexa Fluor 488
Dmc1-WT [9] = molecular target: T3, Dmc1-WT; experiment: fluorescence polarization; ATP, 0 Ca2+; FP: 25 mM HEPES pH 7.5, 1 mM Mg2+, 1 mM ATP, 1 mM DTT, 50 mM NaCl (100 mM in Fig. 3), 100 ug/ml BSA, 0.02% NP-40, 70 uM Ca2+ or as indicated, 3 nM 84-nt ssDNA; conditions: protein: recombinant; tags: N-terminal 6xHis; label: 5' Alexa Fluor 488
Dmc1-E157D = molecular target: T7, Dmc1-E157D (Saccharomyces cerevisiae, UniProt P25453 1-334, E157D); experiment: fluorescence polarization; ATP, 70 uM Ca2+, 50 mM NaCl, 30 C; comparable to WT; FP: 25 mM HEPES pH 7.5, 1 mM Mg2+, 1 mM ATP, 1 mM DTT, 50 mM NaCl (100 mM in Fig. 3), 100 ug/ml BSA, 0.02% NP-40, 70 uM Ca2+ or as indicated, 3 nM 84-nt ssDNA; conditions: protein: recombinant; tags: N-terminal 6xHis; label: 5' Alexa Fluor 488
T7 sequence: T1 sequence (P25453 1-334 E157D)

[10] = molecular target: T8, ScDmc1 (Saccharomyces cerevisiae Dmc1, wild type) (Saccharomyces cerevisiae) (UniProt P25453)
T8 sequence: T1 sequence (P25453 1-334 E157D) with D157E

[11] = molecular target: T8, ScDmc1 (Saccharomyces cerevisiae Dmc1, wild type) (Saccharomyces cerevisiae); remark: listed apart in the source
[12] = molecular target: T8, ScDmc1 (Saccharomyces cerevisiae Dmc1, wild type) (Saccharomyces cerevisiae); remark: listed apart in the source
[13] = molecular target: T8, ScDmc1 (Saccharomyces cerevisiae Dmc1, wild type) (Saccharomyces cerevisiae); remark: listed apart in the source
[14] = molecular target: T8, ScDmc1 (Saccharomyces cerevisiae Dmc1, wild type) (Saccharomyces cerevisiae); remark: listed apart in the source
[15] = molecular target: T8, ScDmc1 (Saccharomyces cerevisiae Dmc1, wild type) (Saccharomyces cerevisiae); remark: listed apart in the source

T6 sequence (Q06609 whole entry): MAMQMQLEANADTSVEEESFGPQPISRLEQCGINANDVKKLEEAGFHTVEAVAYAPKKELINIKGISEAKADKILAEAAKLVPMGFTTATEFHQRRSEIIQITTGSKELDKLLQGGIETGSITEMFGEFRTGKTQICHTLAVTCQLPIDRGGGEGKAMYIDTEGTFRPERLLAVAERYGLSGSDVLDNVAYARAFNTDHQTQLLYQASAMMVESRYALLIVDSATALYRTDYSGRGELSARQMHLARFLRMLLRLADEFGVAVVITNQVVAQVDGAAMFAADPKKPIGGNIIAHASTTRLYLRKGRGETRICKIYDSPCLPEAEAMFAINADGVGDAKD
RecA;Mei5-Sae3, sequence (P0A7G6 whole entry, one chain of several): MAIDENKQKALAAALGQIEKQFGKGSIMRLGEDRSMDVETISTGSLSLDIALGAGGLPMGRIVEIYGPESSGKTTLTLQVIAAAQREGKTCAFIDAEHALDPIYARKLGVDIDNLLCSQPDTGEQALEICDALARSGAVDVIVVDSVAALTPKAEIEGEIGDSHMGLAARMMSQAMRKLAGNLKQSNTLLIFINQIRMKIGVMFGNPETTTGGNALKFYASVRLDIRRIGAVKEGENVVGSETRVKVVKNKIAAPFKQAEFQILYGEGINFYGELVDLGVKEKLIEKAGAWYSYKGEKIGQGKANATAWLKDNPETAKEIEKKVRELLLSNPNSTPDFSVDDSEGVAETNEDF
RecA, sequence (P0A7G6 whole entry): as the sequence (P0A7G6 whole entry, one chain of several) above

- Kd (ScDmc1 (Dmc1–WT)): 5000 to 6000 nM
Molecule: Nc1ncnc2c1ncn2[C@@H]1O[C@H](COP(=O)(O)OP(=O)(O)OP(=O)(O)O)[C@@H](O)[C@H]1O [ATP]
- nitrocellulose filter binding (ScDmc1): ATP binding activity of Dmc1–E157D and found it was significantly reduced

B1: 84 nt-ssDNA (ssDNA)
DNA: GGTAGCGGTTGGGTGAGTGGTGGGGAGGGTCGGGAGGTGGCGTAGAAACATGATAGGAATGTGAATGAATGAAGTACAAGTAAA
- Kd (Dmc1-WT [1]): 472 nM and 508 nM
- binding result (RecA;Mei5-Sae3): binds
- binding result (Mei5-Sae3): binds
- Kd (Dmc1-WT [2]): 164 ± 13 nM
- binding result (RecA): binds
- fold decrease in Kd (Dmc1-WT;Mei5-Sae3 [3]): ~1.5 fold lower Kd than Dmc1 alone
- Kd (Dmc1-WT [4]): 966 nM and 933 nM
- Kd (hRad51 [5]): 476 ± 20 nM
- Kd (hRad51 [6]): 342 ± 10 nM
- fold decrease in Kd vs Dmc1 alone (Dmc1-WT;Mei5-Sae3 [7]): ~1.5 fold lower Kd than Dmc1 alone
- Kd (Dmc1-WT;Mei5-Sae3 [8]): 512 ± 25 nM
- Kd (Dmc1-WT [9]): 1340 ± 113 nM
- binding result (Dmc1-E157D): binds

- D-loop yield with versus without 0.5 µM Mei5–Sae3 (3 µM Dmc1, 0.2 µM RPA, 70 µM Ca2+, 5 mM Mg2+, ATP) [10]: 2.5 fold
- negative-stain EM: average Dmc1 filament length with versus without Mei5–Sae3, ADP as cofactor (compressed filaments) [11]: 2.3 fold
- negative-stain EM: average Dmc1 filament length with versus without Mei5–Sae3, AMP–PNP as cofactor [11]: 1.5 fold
- apparent KD of Dmc1 for ssDNA by fluorescence polarisation, fold reduction by 400 nM Mei5–Sae3 (ADP in place of ATP) [12]: 1.5 fold
- apparent KD of Dmc1 for ssDNA by fluorescence polarisation, fold reduction by 400 nM Mei5–Sae3 (AMP–PNP in place of ATP) [12]: 1.5 fold
- apparent KD of Dmc1 for ssDNA by fluorescence polarisation, fold reduction by 400 nM Mei5–Sae3 (ATP, 70 µM Ca2+, 100 mM NaCl) [12]: 2 fold
- negative-stain EM: average Dmc1 filament length with 2 µM Mei5–Sae3 against the control without it (ATP, 70 µM Ca2+, RPA) [13]: 1.5 fold
- negative-stain EM: share of Dmc1 filaments in the extended (active) form with 2 µM Mei5–Sae3 (ATP, 70 µM Ca2+, RPA; 17% without Mei5–Sae3) [13]: 76%
- 3H-ADP retained on Dmc1 filaments (nitrocellulose filter) after adding 0.5, 1 or 2 µM Mei5–Sae3; value at 2 µM [14]: 65%
- ssDNA-dependent ATP hydrolysis by Dmc1 (TLC), with versus without Mei5–Sae3, 70 µM Ca2+ [15]: 2 fold
B2: ScMei5–Sae3 heterodimer (complex)
chain 1: T4 sequence 1
chain 2: T4 sequence 2
